Source: patent publication US20120288494A1 (published 2012)
Changes are numbered by the printed parent chain. Where two headings read alike, the source gives them in different places.

T1: human IL-12 p70 (UniProt P29460 23-328; P29459 23-219)
T1 chain 1: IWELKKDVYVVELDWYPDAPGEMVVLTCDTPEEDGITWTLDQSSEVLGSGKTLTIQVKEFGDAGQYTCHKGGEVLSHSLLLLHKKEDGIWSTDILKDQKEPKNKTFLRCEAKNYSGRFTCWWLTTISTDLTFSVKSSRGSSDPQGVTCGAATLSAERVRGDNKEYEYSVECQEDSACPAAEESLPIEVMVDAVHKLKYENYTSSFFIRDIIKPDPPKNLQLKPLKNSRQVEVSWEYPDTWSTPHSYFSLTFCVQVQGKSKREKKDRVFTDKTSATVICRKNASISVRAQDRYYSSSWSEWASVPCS
T1 chain 2: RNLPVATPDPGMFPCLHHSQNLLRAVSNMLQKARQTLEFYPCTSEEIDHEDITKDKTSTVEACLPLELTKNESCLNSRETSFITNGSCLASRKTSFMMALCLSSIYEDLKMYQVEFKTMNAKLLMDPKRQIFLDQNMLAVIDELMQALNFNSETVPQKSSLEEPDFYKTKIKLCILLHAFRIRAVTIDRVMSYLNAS

B1: IL-12 (ligand)
chain 1: T1 chain 1
chain 2: T1 chain 2
B2: Y61 (antibody, V domains shown)
VH: QVQLVQSGGGVVQPGRSLRLSCAASGFTFSSYGMHWVRQAPGKGLEWVAFIRYDGSNKYYADSVKGRFTISRDNSKNTLYLQMKSLRAEDTAVYYCKTHGSHDNWGQGTMVTVSS
VL: SYVLTQPPSVSGTPGQRVTISCSGGRSNIGSNTVKWYQQLPGTAPKLLIYGNDQRPSGVPDRFSGSKSGTSASLAITGVQAEDEADYYCQSYDRGTHPALLFGTGTKVTVLG
B3: 103-14 (antibody, V domains shown)
VH: B2 VH
VL: SYVLTQPPSVSGTPGQRVTISCSGGRSNIGSNTVKWYQQLPGTAPKLLIYGNDQRPSGVPDRFSGSKSGTSASLAITGVQAEDEADYYCQSYDRGFTGSMVFGTGTKVTVL
B4: J695 (antibody, V domains shown)
VH: B2 VH with Q6E, K84N
VL: B2 VL with S1Q, Y2S, T13A, G25S, G51Y, V79L, G95Y

What was measured:
[1] = target: Y61 L50Y; experiment: kinetic binding
[2] = target: 78-34; experiment: kinetic binding
[3] = target: Y61 L94Y; experiment: kinetic binding
[4] = target: B1; experiment: receptor binding assay (RBA)
[5] = target: B1; experiment: kinetic binding
[6] = target: T1, human IL-12 p70; experiment: kinetic binding
[7] = target: T1, human IL-12 p70; experiment: receptor binding assay (RBA)
[8] = target: T1, human IL-12 p70; experiment: receptor binding assay (RBA)

Binder: B1
Kd [1]: 0.138 nM | koff [2]: 0.0164 s⁻¹ | Kd [3]: 0.341 nM

Binder: B2
IC50 [4]: 0.016 nM | Kd [5]: 0.604 nM

Binder: B3
koff [6]: 0.00067 s⁻¹ | IC50 [7]: 0.04 nM

Binder: B4
IC50 [8]: 0.05 nM
